Changes are numbered by the printed parent chain.
How the values were obtained:
Experiment in all cases: cell-based or functional assay
[1] = target: T1, factor VIIIa A1/A3C1C2 dimer, S1791A (human, UniProt P00451 20-391; P00451 1709-2351)
T1 sequence 1: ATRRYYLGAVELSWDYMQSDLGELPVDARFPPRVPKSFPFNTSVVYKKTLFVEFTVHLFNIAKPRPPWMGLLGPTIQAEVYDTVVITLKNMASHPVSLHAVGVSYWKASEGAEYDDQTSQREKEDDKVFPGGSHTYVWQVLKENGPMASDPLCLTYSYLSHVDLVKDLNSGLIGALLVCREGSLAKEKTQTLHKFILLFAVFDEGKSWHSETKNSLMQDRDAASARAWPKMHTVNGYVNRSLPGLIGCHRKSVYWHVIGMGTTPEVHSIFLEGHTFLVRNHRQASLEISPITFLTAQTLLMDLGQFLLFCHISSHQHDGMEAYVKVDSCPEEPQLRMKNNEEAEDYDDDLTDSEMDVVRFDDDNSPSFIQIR
T1 sequence 2: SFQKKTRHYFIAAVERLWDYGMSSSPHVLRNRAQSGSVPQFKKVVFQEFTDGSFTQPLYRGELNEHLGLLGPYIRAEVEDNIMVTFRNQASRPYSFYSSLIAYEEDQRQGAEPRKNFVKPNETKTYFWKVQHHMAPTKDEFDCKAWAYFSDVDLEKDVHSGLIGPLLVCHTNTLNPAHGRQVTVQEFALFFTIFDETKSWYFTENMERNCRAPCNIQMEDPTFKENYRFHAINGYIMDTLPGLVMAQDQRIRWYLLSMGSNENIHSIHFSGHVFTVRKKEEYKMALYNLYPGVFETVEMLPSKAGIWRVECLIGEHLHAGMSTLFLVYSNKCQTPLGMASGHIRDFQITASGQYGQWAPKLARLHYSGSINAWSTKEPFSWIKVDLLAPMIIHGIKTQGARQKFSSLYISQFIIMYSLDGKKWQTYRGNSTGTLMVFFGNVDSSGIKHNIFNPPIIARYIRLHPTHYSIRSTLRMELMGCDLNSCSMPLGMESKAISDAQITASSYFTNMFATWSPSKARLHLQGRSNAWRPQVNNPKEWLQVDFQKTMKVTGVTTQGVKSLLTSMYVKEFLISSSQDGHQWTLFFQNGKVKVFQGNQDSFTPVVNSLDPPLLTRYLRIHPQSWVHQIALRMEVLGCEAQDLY

[2] = target: T2, factor VIIIa A1/A3C1C2 dimer, E1829A (human, UniProt P00451 20-391; P00451 1709-2351)
T2 sequence 1: T1 sequence 1
T2 sequence 2: T1 sequence 2 with A102S, E140A

[3] = target: T3, factor VIIIa A1/A3C1C2 dimer, Glu1984Ala (human, UniProt P00451 20-391; P00451 1709-2351)
T3 sequence 1: T1 sequence 1
T3 sequence 2: T1 sequence 2 with A102S, E295A

B1: factor VIIIa A2 subunit, wild type (other)
chain: SVAKKHPKTWVHYIAAEEEDWDYAPLVLAPDDRSYKSQYLNNGPQRIGRKYKKVRFMAYTDETFKTREAIQHESGILGPLLYGEVGDTLLIIFKNQASRPYNIYPHGITDVRPLYSRRLPKGVKHLKDFPILPGEIFKYKWTVTVEDGPTKSDPRCLTRYYSSFVNMERDLASGLIGPLLICYKESVDQRGNQIMSDKRNVILFSVFDENRSWYLTENIQRFLPNPAGVQLEDPEFQASNIMHSINGYVFDSLQLSVCLHEVAYWYILSIGAQTDFLSVFFSGYTFKHKMVYEDTLTLFPFSGETVFMSMENPGLWILGCHNSDFRNRGMTALLKVSSCDKNTGDYYEDSYEDISAYLLSKNNAIEPR
Factor VIIIa decay rate relative to wild type, FIXa (+) [1]: 1.85 relative to wild type | Factor VIIIa decay rate, FIXa (+) [1]: 0.0208 min⁻¹ | rate of factor VIIIa decay compared with WT, factor IXa present [2]: 5 fold | Decay rate relative to wild type, Factor VIIIa (1.5 nM, factor IXa absent) [3]: 0.41 relative to wild type | Decay rate, Factor VIIIa (1.5 nM factor VIIIa, factor IXa absent) [3]: 0.0574 min⁻¹
